The values below come from US20250011434A1, “ASYMMETRIC BISPECIFIC ANTIBODY (UMG2/CD1A-CD3E) FOR THE IMMUNOLOGICAL TREATMENT OF CORTICAL-DERIVED CD1A-EXPRESSING T-CELL ACUTE LYMPHOBLASTIC LEUKEMIAS (T-ALL)” (UNIVERSITA' DEGLI STUDI MAGNA GRAECIA DI CATANZARO, published 2025).

The target in this experiment is CD1a (Homo sapiens (Human), UniProt P06126). Description: titration experiments on cortical, CD1a-expressing T-ALL cell lines (apparent Kd, average).

B1: asymmetric bispecific antibody UMG2/CD1a-CD3ε BTCE (bispecific antibody)
heavy 1: not shown
heavy 2: not shown
light: DIQMTQTTSSLSASLGDRVTISCSASQDISNYLDWYQQKPDGTVRLLIYYTSSLHSGVPSRFSGSGSGTAFSLTIINLEPEDVATYYCHQYSNLPYTFGGGTKLEIKRTVAAPSVFIFPPSDEQLKSGTASVVCLLNNFYPREAKVQWKVDNALQSGNSQESVTEQDSKDSTYSLSSTLTLSKADYEKHKVYACEVTHQGLSSPVTKSFNRGEC
With B1, the Kd is 0.014 µg/mL.
